The test addresses receptors for heregulin on rat Schwann cell lines (ESC and ASC).

The record followed here is patent US5849585.

For the substance “recombinant human heregulin-β1 177-244 fragment (from UniProt Q02297) (ligand)”, the half-maximal response, growth of rat ESC and ASC Schwann cell lines lay in the range of 1 to 2 nM.
